Assay results taken from publication doi:10.1101/2025.06.20.660705.

Biological target: RNF13 DN-HA (dominant-negative RNF13, HA-tagged) (human) (UniProt O43567)
Experiment: co-IP

Chain of UniProt O43567 (O43567 35-381): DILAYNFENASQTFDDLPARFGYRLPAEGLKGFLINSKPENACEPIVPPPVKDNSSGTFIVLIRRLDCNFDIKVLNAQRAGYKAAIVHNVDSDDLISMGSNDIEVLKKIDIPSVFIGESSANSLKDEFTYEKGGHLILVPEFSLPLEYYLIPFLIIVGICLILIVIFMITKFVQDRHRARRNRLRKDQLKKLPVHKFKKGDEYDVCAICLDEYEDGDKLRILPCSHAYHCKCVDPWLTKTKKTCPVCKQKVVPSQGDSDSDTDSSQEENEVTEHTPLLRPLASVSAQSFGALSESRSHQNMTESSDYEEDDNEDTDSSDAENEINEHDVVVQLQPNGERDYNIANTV

amount of IDS co-immunoprecipitated relative to RNF13 WT: 50%
B1: IDS-V5 (wild-type, full-length human iduronate 2-sulfatase, C-terminal V5 tag) (enzyme)
chain: SETQANSTTDALNVLLIIVDDLRPSLGCYGDKLVRSPNIDQLASHSLLFQNAFAQQAVCAPSRVSFLTGRRPDTTRLYDFNSYWRVHAGNFSTIPQYFKENGYVTMSVGKVFHPGISSNHTDDSPYSWSFPPYHPSSEKYENTKTCRGPDGELHANLLCPVDVLDVPEGTLPDKQSTEQAIQLLEKMKTSASPFFLAVGYHKPHIPFRYPKEFQKLYPLENITLAPDPEVPDGLPPVAYNPWMDIRQREDVQALNISVPYGPIPVDFQRKIRQSYFASVSYLDTQVGRLLSALDDLQLANSTIIAFTSDHGWALGEHGEWAKYSNFDVATHVPLIFYVPGRTASLPEAGEKLFPYLDPFDSASQLMEPGRQSMDLVELVSLFPTLAGLAGLQVPPRCPVPSFHVELCREGKNLLKHFRFRDLEEDPYLPGNPRELIAYSQYPRPSDIPQWNSDKPSLKDIKIMGYSIRTIDYRYTVWVGFNPDEFLANFSDIHAGELYFVDSDPLQDHNMYNDSQGGDLFQLLMP
